Test results from patent US20180125934A1 (Stanford University, published 2018).
Where a chain is given by its changes, count along the chain named.

B1: PD-1 variant polypeptide, clone S5.1c (receptor)
chain: NPPTFSPALLVVTEGDNATFTCSFSNTSESFVLNWYRMSPSNQTDKLAAFPEDRGQPGQDSRFRVIQLPNGRDFHMSVVRARRNDSGTYLCGAISLAPKVQIKESLRAELRVTERRAE
B2: PD-1 variant polypeptide, clone S5.1e (receptor)
chain: B1 chain with G55S, I66T, N84S, T113I
B3: PD-1 variant polypeptide, clone S5.1f (receptor)
chain: B1 chain with M38V, G55S, Q56R, I66T, Q67R, R80G, N84S
B4: PD-1 variant polypeptide, clone S5.1g (receptor)
chain: B1 chain with T27A, N42D, P57L, I66T, V100I
B5: PD-1 variant polypeptide, clone S5.1i (receptor)
chain: B1 chain with G55S, I66T, H75R, N84S, G92S
B6: PD-1 variant polypeptide, clone S5.1k (receptor)
chain: B1 chain with N1D, G55S, I66T, N84D, V100I
B7: PD-1 variant polypeptide, clone S5.1n (receptor)
chain: B1 chain with G55S, I66T, R83G, N84D, A108V
B8: PD-1 variant polypeptide, clone S5.1p (receptor)
chain: B1 chain with N1D, G55S, I66T, S95L, K99R, V100I, K103R, R107G, R115K, R116G
B9: PD-1 variant polypeptide, clone S5.1q (receptor)
chain: B1 chain with G55S, P57L, I66T, K103R, A108V
B10: PD-1 variant polypeptide, clone S5.2d (receptor)
chain: B1 chain with N42D, G55S, Q56R, I66T, R80G, K103R
B11: PD-1 variant polypeptide, clone S5.2i (receptor)
chain: B1 chain with T13A, G55S, S61R, I66T, N70S, S95F, K99R, V100I
B12: PD-1 variant polypeptide, clone S5.2q (receptor)
chain: B1 chain with N1S, F5L, A18V, Q59R, I66T
B13: PD-1 variant polypeptide, clone S5.2s (receptor)
chain: B1 chain with N42S, G55S, I66T, N84S, A93V, T113I
B14: PD-1 variant polypeptide, clones S5.1j, S5.1o (receptor)
chain: B1 chain with G55S, I66T, A108V
B15: PD-1 variant polypeptide, clone S5.1 (receptor)
chain: B1 chain with P57L, I66T, N84S, G92S, S95V, V100I, A108V
B16: PD-1 variant polypeptide, clone S5.4 (receptor)
chain: B1 chain with Q59R, I66T, H75R, N84S, G92S, S95L, V100I, R107G, R115K, R116G
B17: PD-1 variant polypeptide, clone S5.7 (receptor)
chain: B1 chain with P57L, I66T, N84S, G92S, S95L, V100I, A108V
B18: PD-1 variant polypeptide, clone S6.8.3 (receptor)
chain: B1 chain with P57L, D60A, I66T, N84S, G92S, S95L, K99R, V100I, K103R, A108V
B19: PD-1 variant polypeptide, clone S6.12.6 (receptor, not shown: large carriers)
chain: NPPTFSPALLVVTEGDNATFTCSFSNTSESFVLNWYRISPSNQTDKLAAFPEDRGQLGQDSRFRVTQLPNGRDFHMSVVRARRSDSGTYLCSAILLAPRIQIRESLGVELRVTEKRAE
B20: PD-1 variant polypeptide, clone S6.12.9 (receptor)
chain: B19 chain with I38M, L95V, R103K, G107R, K115R

The binders below were run against T1, human PD-L1-Fc chimeric protein (human, UniProt Q9NZQ7 19-238) (assay: yeast display, clone sequenced from the pool after five FACS sorts on PD-L1-Fc; measured as a pool, not singly).
T1 construct: extracellular domain; Recombinant protein; also called soluble PD-L1-Fc; not shown: Fc region of human IgG1, fused at the C-terminus
T1 sequence (Q9NZQ7 19-238, change not shown): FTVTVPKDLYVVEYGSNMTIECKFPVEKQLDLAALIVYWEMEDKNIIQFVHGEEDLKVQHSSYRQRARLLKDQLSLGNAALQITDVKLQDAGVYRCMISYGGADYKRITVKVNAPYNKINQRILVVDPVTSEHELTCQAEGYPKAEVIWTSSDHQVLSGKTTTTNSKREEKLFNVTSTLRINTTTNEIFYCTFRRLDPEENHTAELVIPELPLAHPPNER
Method: In these sorts, yeast were incubated at room temperature in phosphate-buffered saline with 1 mg/ml BSA (PBSA) and with the following nominal concentrations of PD-L1-Fc: for sort 1, 250 nM; sort 2, 20 nM; sort 3, 1 nM; sort 4, 0.1 nM; sort 5, 0.1 nM. PD-L1 Fc refers to a human PD-L1-Fc chimeric protein. This recombinant protein contains the extracellular domain of human PD-L1 fused to the Fc region of human IgG1 at the C-terminus. After incubation with PD-L1-Fc, yeast were pelleted, washed, and resuspended in PBSA with chicken anti-cMYC for 1 hour at 4° C. After primary antibody incubation, yeast were once again washed and secondary labeling was performed on ice for 30 minutes using PBSA with goat anti-chicken Alexa Fluor 555 and goat anti-human IgG Alexa Fluor 488. Each sort was conducted such that the 1-3% of clones with the highest PD-L1 binding/cMyc expression ration were selected, thereby enriching the library for clones with the highest affinity. In the first round, 1×10⁸ cells were screened, and in subsequent rounds a minimum of ten-fold the number of clones collected in the prior sort round were screened to ensure adequate sampling of diversity.
Samples were analyzed using a FACScalibur flow cytometer and data was analyzed using FlowJo software.

Binding result, binds:
B1
B2
B3
B4
B5
B6
B7
B8
B9
B10
B11
B12
B13
B14

These binders were tested against T1, human PD-L1-Fc chimeric protein (assay: flow cytometry of yeast-displayed clone with soluble PD-L1-Fc (S5.1 tested at 0.5 nM only, see paragraph 221)).
Method: (§1) Binding was allowed to proceed for 3 hours at room temperature at which time yeast were pelleted, washed twice to remove unbound PD-L1-Fc, and stained with a fluorescently labeled secondary antibody to detect the Fc of bound PD-L1. Secondary labeling was performed for 30 minutes on ice, after which yeast were pelleted and washed as described. Yeast samples were then analyzed on a flow cytometer to quantify PD-L1-Fc binding.
(§2) FIG. 4 provides a graph of the FACS data.

Binding result, binds:
B15

What follows are binders tested against T1, human PD-L1-Fc chimeric protein (assay: flow cytometry of yeast-displayed clone with soluble PD-L1-Fc at 5 nM or 0.5 nM).
Method: as §1, §2

Binding result, binds:
B16

What follows are binders tested against T1, human PD-L1-Fc chimeric protein (assay: flow cytometry of yeast-displayed clone, FIG. 2 (0.5 nM PD-L1-Fc) and FIG. 3 (5 nM, also bound strongly)).
Method: as §1, §2

Binding result, binds:
B17
B18
B19
B20
